Experimental data reported in the RNAGym collection of RNA variant scans (doi:10.1021/acssynbio.7b00057).

B1: Pistol ribozyme (parent)
chain: GGGUCGUUGUUCCAUAAUCGCGUGGAUAUGGCACGCAAGUUUCUACCGGGCACCGUAAAUGUCCGACUGGAGCCGUUCGGGCGGCUAUAAACAGACCUCAGGCCCGAAGCGUGGCGGCACCUGCCGCCGGUGGUAAAAAAGAUCGGAAGAGCACACGUCU

Variants of: B1
Assay: aptazyme ON/OFF ratio, guanine; higher = stronger switching; co-transcriptional cleavage with and without guanine

Going from GGGUCGCUUGUAAAUAAUCGCGUGGAUAUGGCACGCAAGUUUCUACCGGGCACCGUAAAUGUCCGACUGGAGCCGUUCGGGCGGCUAUAAACAGACCUCAGGCCCGAAGCGUGGCGGCACCUGCCGCCGGUGGUAAAAAAGAUCGGAAGAGCACACGUCU [U7C G9U U10G C12A C13A] to GGGUCGCUUGUAUAUAAUCGCGUGGAUAUGGCACGCAAGUUUCUACCGGGCACCGUAAAUGUCCGACUGGAGCCGUUCGGGCGGCUAUAAACAGACCUCAGGCCCGAAGCGUGGCGGCACCUGCCGCCGGUGGUAAAAAAGAUCGGAAGAGCACACGUCU [U7C G9U U10G C12A C13U], the “aptazyme ON/OFF ratio” value rises from 1.09 to 1.24.

Compared with GGGUCGCUUCGCCAUAAUCGCGUGGAUAUGGCACGCAAGUUUCUACCGGGCACCGUAAAUGUCCGACUGGAGCCGUUCGGGCGGCUAUAAACAGACCUCAGGCCCGAAGCGUGGCGGCACCUGCCGCCGGUGGUAAAAAAGAUCGGAAGAGCACACGUCU [U7C G9U U10C U11G], GGGUCGCUUGACCAUAAUCGCGUGGAUAUGGCACGCAAGUUUCUACCGGGCACCGUAAAUGUCCGACUGGAGCCGUUCGGGCGGCUAUAAACAGACCUCAGGCCCGAAGCGUGGCGGCACCUGCCGCCGGUGGUAAAAAAGAUCGGAAGAGCACACGUCU [U7C G9U U10G U11A] is lower in “aptazyme ON/OFF ratio” value: 1.18 for the first, 1.03 for the second.

Compared with GGGUCGCUUCGACAUAAUCGCGUGGAUAUGGCACGCAAGUUUCUACCGGGCACCGUAAAUGUCCGACUGGAGCCGUUCGGGCGGCUAUAAACAGACCUCAGGCCCGAAGCGUGGCGGCACCUGCCGCCGGUGGUAAAAAAGAUCGGAAGAGCACACGUCU [U7C G9U U10C U11G C12A], GGGUCGCUUCGGCAUAAUCGCGUGGAUAUGGCACGCAAGUUUCUACCGGGCACCGUAAAUGUCCGACUGGAGCCGUUCGGGCGGCUAUAAACAGACCUCAGGCCCGAAGCGUGGCGGCACCUGCCGCCGGUGGUAAAAAAGAUCGGAAGAGCACACGUCU [U7C G9U U10C U11G C12G] is higher in “aptazyme ON/OFF ratio” value: 1.09 for the first, 1.1 for the second.

Going from GGGUCGCUUCGUCAUAAUCGCGUGGAUAUGGCACGCAAGUUUCUACCGGGCACCGUAAAUGUCCGACUGGAGCCGUUCGGGCGGCUAUAAACAGACCUCAGGCCCGAAGCGUGGCGGCACCUGCCGCCGGUGGUAAAAAAGAUCGGAAGAGCACACGUCU [U7C G9U U10C U11G C12U] to GGGUCGCUUGUCCAUAAUCGCGUGGAUAUGGCACGCAAGUUUCUACCGGGCACCGUAAAUGUCCGACUGGAGCCGUUCGGGCGGCUAUAAACAGACCUCAGGCCCGAAGCGUGGCGGCACCUGCCGCCGGUGGUAAAAAAGAUCGGAAGAGCACACGUCU [U7C G9U U10G], the “aptazyme ON/OFF ratio” value rises from 1.22 to 1.38.

Compared with GGGUCGCUUCCCUAUAAUCGCGUGGAUAUGGCACGCAAGUUUCUACCGGGCACCGUAAAUGUCCGACUGGAGCCGUUCGGGCGGCUAUAAACAGACCUCAGGCCCGAAGCGUGGCGGCACCUGCCGCCGGUGGUAAAAAAGAUCGGAAGAGCACACGUCU [U7C G9U U10C U11C C13U], GGGUCGCUUCGCUAUAAUCGCGUGGAUAUGGCACGCAAGUUUCUACCGGGCACCGUAAAUGUCCGACUGGAGCCGUUCGGGCGGCUAUAAACAGACCUCAGGCCCGAAGCGUGGCGGCACCUGCCGCCGGUGGUAAAAAAGAUCGGAAGAGCACACGUCU [U7C G9U U10C U11G C13U] is higher in “aptazyme ON/OFF ratio” value: 1 for the first, 1.23 for the second.

First: GGGUCGCUUCGCAAUAAUCGCGUGGAUAUGGCACGCAAGUUUCUACCGGGCACCGUAAAUGUCCGACUGGAGCCGUUCGGGCGGCUAUAAACAGACCUCAGGCCCGAAGCGUGGCGGCACCUGCCGCCGGUGGUAAAAAAGAUCGGAAGAGCACACGUCU [U7C G9U U10C U11G C13A]
Second: GGGUCGCUUCGCGAUAAUCGCGUGGAUAUGGCACGCAAGUUUCUACCGGGCACCGUAAAUGUCCGACUGGAGCCGUUCGGGCGGCUAUAAACAGACCUCAGGCCCGAAGCGUGGCGGCACCUGCCGCCGGUGGUAAAAAAGAUCGGAAGAGCACACGUCU [U7C G9U U10C U11G C13G]
The “aptazyme ON/OFF ratio” value of the first is higher: 1.24 for the first, 1.04 for the second.

Compared with GGGUCGCUUGUUGAUAAUCGCGUGGAUAUGGCACGCAAGUUUCUACCGGGCACCGUAAAUGUCCGACUGGAGCCGUUCGGGCGGCUAUAAACAGACCUCAGGCCCGAAGCGUGGCGGCACCUGCCGCCGGUGGUAAAAAAGAUCGGAAGAGCACACGUCU [U7C G9U U10G C12U C13G], GGGUCGCUUGUUAAUAAUCGCGUGGAUAUGGCACGCAAGUUUCUACCGGGCACCGUAAAUGUCCGACUGGAGCCGUUCGGGCGGCUAUAAACAGACCUCAGGCCCGAAGCGUGGCGGCACCUGCCGCCGGUGGUAAAAAAGAUCGGAAGAGCACACGUCU [U7C G9U U10G C12U C13A] is higher in “aptazyme ON/OFF ratio” value: 1.15 for the first, 1.2 for the second.

Compared with GGGUCGCUUGUUUAUAAUCGCGUGGAUAUGGCACGCAAGUUUCUACCGGGCACCGUAAAUGUCCGACUGGAGCCGUUCGGGCGGCUAUAAACAGACCUCAGGCCCGAAGCGUGGCGGCACCUGCCGCCGGUGGUAAAAAAGAUCGGAAGAGCACACGUCU [U7C G9U U10G C12U C13U], GGGUCGCUUCGUGAUAAUCGCGUGGAUAUGGCACGCAAGUUUCUACCGGGCACCGUAAAUGUCCGACUGGAGCCGUUCGGGCGGCUAUAAACAGACCUCAGGCCCGAAGCGUGGCGGCACCUGCCGCCGGUGGUAAAAAAGAUCGGAAGAGCACACGUCU [U7C G9U U10C U11G C12U C13G] is lower in “aptazyme ON/OFF ratio” value: 1.69 for the first, 1.15 for the second.

Compared with GGGUCGCUUCGUAAUAAUCGCGUGGAUAUGGCACGCAAGUUUCUACCGGGCACCGUAAAUGUCCGACUGGAGCCGUUCGGGCGGCUAUAAACAGACCUCAGGCCCGAAGCGUGGCGGCACCUGCCGCCGGUGGUAAAAAAGAUCGGAAGAGCACACGUCU [U7C G9U U10C U11G C12U C13A], GGGUCGCUUCGUUAUAAUCGCGUGGAUAUGGCACGCAAGUUUCUACCGGGCACCGUAAAUGUCCGACUGGAGCCGUUCGGGCGGCUAUAAACAGACCUCAGGCCCGAAGCGUGGCGGCACCUGCCGCCGGUGGUAAAAAAGAUCGGAAGAGCACACGUCU [U7C G9U U10C U11G C12U C13U] is higher in “aptazyme ON/OFF ratio” value: 1.14 for the first, 1.16 for the second.
